# Laboratory results taken from patent publication US20140228540A1, “POLYPEPTIDES THAT BIND TISSUE INHIBITOR OF METALLOPROTEINASE TYPE THREE (TIMP-3), COMPOSITIONS AND METHODS” (Amgen Inc., priority 2009, published 2014).
# B1: TIMP-3: tissue inhibitor of metalloproteinase 3, recombinant (protein, UniProt P35625 24-211, looked up)
# Metalloproteinase inhibitor 3: CTCSPSHPQDAFCNSDIVIRAKVVGKKLVKEGPFGTLVYTIKQMKMYRGFTKMPHVQYIHTEASESLCGLKLEVNKYQYLLTGRVYDGKMYTGLCNFVERWDQLTLSQRKGLNYRYHLGCNCKIKSCYYLPCFVTSKNECLWTDMLSNFGYPGYQSKHYACIRQKGGYCSWYRGWAPPDKSIINATDP
# Legend:
# [1] = system: cartilage-explants; conditions: addition of the protein to explants; cited from earlier work
# [2] = system: rat medial meniscal tear model of osteoarthritis; conditions: intra-articular injection; cited from earlier work
# [3] = target: MMP-13 (Homo sapiens, UniProt P45452); test: TIMP-3 inhibition of MMP-13 (TIMP-3 alone); format: biochemical; conditions: TIMP-3 at 0.25 nM, 1.5 nM MMP-13, absence of any antibody
# From the text: This Example described MMP-13 Inhibition Assays useful for measuring the effect(s) of TIMP-3 binding proteins (also referred to as test molecules, including LRP-1 peptides and antibodies to TIMP-3) on the ability of TIMP-3 to inhibit MMP-13. First, a titration of TIMP-3 inhibition of MMP-13 is run to empirically determine the IC50 of TIMP-3. […] Briefly, test molecules are titrated in assay buffer and added to black polystyrene 96 or 384 well assay plate (Griener Bio-One, Germany). […] Then recombinant TIMP-3 is diluted in assay buffer (20 mM Tris, 10 mM CaCl2, 10 uM ZnCl2, 0.01% Brij 35 (Calbiochem/EMD, San Diego, Calif.), pH 7.5) to a previously determined concentration (for example, TIMP-3's IC70 with 3 nM being a typical concentration), added to the test molecules and rotated for 10 minutes at room temperature. […]
# None of the 22 antibodies evaluated adversely affected the ability of TIMP-3 to inhibit MMP-13, nor did they have an effect upon MMP-13 itself. In the TIMP-3 accumulation assay, the antibodies were evaluated for reproducible, titratable increase in the accumulation of TIMP-3 in supernatant fluid at levels of at least about 1.5 times higher than that observed with a negative control antibody. […]
molecule,measurement,setting,value
B1,cytokine-induced degradation of cartilage-explants,[1],prevents cytokine-induced degradation
same,cartilage damage,[2],reduces cartilage damage
same,inhibition of MMP-13 activity,[3],54%
